For one data set, the system named is biotinyl-Trp-oxazolone. Kind of data set: self-aminoacylation, catalytic enhancement (BWO) (fold over background); higher = more active; k-Seq, kA / k0A0; sequences stand for … in GGGAAUGGAUCCACAUCUACGAAUUC…UUCACUGCAGACUUGACGAAGCUG
Summed up: (§1)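 Mutagenized RNA pools with a 21-nt variable region (0.43 μM) were reacted with each biotinyl-aminoacyl-oxazolone at 2–1250 μM for 90 minutes at room temperature, in 50 μL HEPES/NaCl/KCl/MgCl2/CaCl2 buffer containing 5% acetonitrile at pH 6.9–7.0. RNA captured on streptavidin was quantified by triplicate qPCR and by Illumina sequencing. The fraction reacted for each sequence was fit to a pseudo-first-order model with bootstrapping, and catalytic enhancement is the median kA divided by the uncatalyzed rate, taken as the low-activity peak of a bimodal Gaussian fit.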

Another data set concerns biotinyl-Met-oxazolone. Kind of data set: self-aminoacylation, catalytic enhancement (BMO) (fold over background); higher = more active; k-Seq, kA / k0A0; sequences stand for … in GGGAAUGGAUCCACAUCUACGAAUUC…UUCACUGCAGACUUGACGAAGCUG
Summed up:
as §1

The subject of another data set is biotinyl-Leu-oxazolone. Kind of data set: self-aminoacylation, catalytic enhancement (BLO) (fold over background); higher = more active; k-Seq, kA / k0A0; sequences stand for … in GGGAAUGGAUCCACAUCUACGAAUUC…UUCACUGCAGACUUGACGAAGCUG
The essentials: as §1

Another data set relates to biotinyl-Val-oxazolone. In words: self-aminoacylation, catalytic enhancement (BVO) (fold over background); higher = more active; k-Seq, kA / k0A0; sequences stand for … in GGGAAUGGAUCCACAUCUACGAAUUC…UUCACUGCAGACUUGACGAAGCUG
The essentials:
as §1

Another data set has as its system biotinyl-Phe-oxazolone. In words: self-aminoacylation, catalytic enhancement (BFO) (fold over background); higher = more active; k-Seq, kA / k0A0; sequences stand for … in GGGAAUGGAUCCACAUCUACGAAUUC…UUCACUGCAGACUUGACGAAGCUG
Summed up: as §1

A further data set has as its system biotinyl-Ile-oxazolone. In words: self-aminoacylation, catalytic enhancement (BIO) (fold over background); higher = more active; k-Seq, kA / k0A0; sequences stand for … in GGGAAUGGAUCCACAUCUACGAAUUC…UUCACUGCAGACUUGACGAAGCUG
The essentials: as §1

Variants at the floor of the assay were thinned out.

For “AUUCAACUAGGUCAUCGGGAG [Fam2.2 aminoacylation ribozyme variant]”, the self-aminoacylation with biotinyl-Trp-oxazolone was found to be 1.05; with biotinyl-Met-oxazolone it was 1.23; with biotinyl-Leu-oxazolone it was 0.899; in the data set with biotinyl-Val-oxazolone, 0.961; in the data set with biotinyl-Phe-oxazolone, 0.48; in the data set on biotinyl-Ile-oxazolone, 0.943.

Turning to “AUUCAACUAGGUCAUCUGGUG [Fam2.2 aminoacylation ribozyme variant]”, the self-aminoacylation was found to be 2.54 in the data set on biotinyl-Trp-oxazolone; 2.55 in the data set with biotinyl-Met-oxazolone; 3.55 in the data set with biotinyl-Leu-oxazolone; 1.85 with biotinyl-Val-oxazolone; 17.7 in the data set with biotinyl-Phe-oxazolone; 1.9 in the data set on biotinyl-Ile-oxazolone.

With “AUUCAACUAGGUCAUUGGGUG [Fam2.2 aminoacylation ribozyme variant]”, the self-aminoacylation in the data set with biotinyl-Trp-oxazolone is 3.66; with biotinyl-Met-oxazolone, 3.46; in the data set with biotinyl-Leu-oxazolone, 4.71; in the data set on biotinyl-Val-oxazolone, 2.19; with biotinyl-Phe-oxazolone it was 23.7; in the data set on biotinyl-Ile-oxazolone it was 2.3.

On to “AUUCAACUAUGUCAUCGGGUG [Fam2.2 aminoacylation ribozyme variant]”, for which the self-aminoacylation in the data set with biotinyl-Trp-oxazolone is 4.57; in the data set on biotinyl-Met-oxazolone, 4.78; in the data set with biotinyl-Leu-oxazolone, 6.15; in the data set on biotinyl-Val-oxazolone it was 2.45; in the data set with biotinyl-Phe-oxazolone, 33.1; in the data set on biotinyl-Ile-oxazolone it was 3.08.

In the case of “AUUCACAAAGGUCAUCGGGUG [Fam2.2 aminoacylation ribozyme variant]”, the self-aminoacylation was 8.7 in the data set on biotinyl-Trp-oxazolone; 9.76 with biotinyl-Met-oxazolone; 12.2 with biotinyl-Leu-oxazolone; 5.83 in the data set on biotinyl-Val-oxazolone; 84.3 in the data set on biotinyl-Phe-oxazolone; 5.84 in the data set with biotinyl-Ile-oxazolone.

Take “AUUCACACAGGUCAUCGGGUG [Fam2.2 aminoacylation ribozyme variant]”: the self-aminoacylation in the data set on biotinyl-Trp-oxazolone amounted to 5.26; in the data set with biotinyl-Met-oxazolone, 5.6; with biotinyl-Leu-oxazolone, 7.14; in the data set on biotinyl-Val-oxazolone, 4.47; with biotinyl-Phe-oxazolone, 39.6; with biotinyl-Ile-oxazolone it was 4.03.

“AUUCACAUAGGCCAUCGGGUG [Fam2.2 aminoacylation ribozyme variant]”: the self-aminoacylation in the data set with biotinyl-Trp-oxazolone was 4.23; in the data set with biotinyl-Met-oxazolone, 4.86; in the data set with biotinyl-Leu-oxazolone it was 5.85; in the data set on biotinyl-Val-oxazolone it was 3.41; with biotinyl-Phe-oxazolone, 34.7; in the data set with biotinyl-Ile-oxazolone, 3.23.

Take “AUUCACAUAGGUCAUCGGCUG [Fam2.2 aminoacylation ribozyme variant]”: the self-aminoacylation in the data set with biotinyl-Trp-oxazolone was 1.89; in the data set with biotinyl-Met-oxazolone, 1.64; in the data set with biotinyl-Leu-oxazolone it was 1.61; in the data set on biotinyl-Val-oxazolone, 1.78; with biotinyl-Phe-oxazolone it was 7.68; in the data set on biotinyl-Ile-oxazolone, 1.72.

On to “AUUCACAUAGGUCAUCGGGAG [Fam2.2 aminoacylation ribozyme variant]”, for which the self-aminoacylation is 1.76 in the data set on biotinyl-Trp-oxazolone; 1.13 with biotinyl-Met-oxazolone; 0.985 in the data set with biotinyl-Leu-oxazolone; 1.19 with biotinyl-Val-oxazolone; 0.953 in the data set with biotinyl-Phe-oxazolone; 1 in the data set on biotinyl-Ile-oxazolone.

Turning to “AUUCACAUUGGUCAUCGGGUG [Fam2.2 aminoacylation ribozyme variant]”, the self-aminoacylation in the data set on biotinyl-Trp-oxazolone came to 8.88; in the data set with biotinyl-Met-oxazolone, 10.1; with biotinyl-Leu-oxazolone, 12.8; in the data set with biotinyl-Val-oxazolone it was 5.97; with biotinyl-Phe-oxazolone it was 82.8; in the data set on biotinyl-Ile-oxazolone it was 6.31.

Turning to “AUUCACCAAGAUCAUCGGGUG [Fam2.2 aminoacylation ribozyme variant]”, the self-aminoacylation worked out at 4.68 in the data set with biotinyl-Trp-oxazolone; 4.4 in the data set with biotinyl-Met-oxazolone; 5.42 in the data set on biotinyl-Leu-oxazolone; 3.21 in the data set on biotinyl-Val-oxazolone; 33.2 in the data set with biotinyl-Phe-oxazolone; 3.1 with biotinyl-Ile-oxazolone.

In the case of “AUUCACCAAGGGCAUCGGGUG [Fam2.2 aminoacylation ribozyme variant]”, the self-aminoacylation stood at 4.74 with biotinyl-Trp-oxazolone; 5.2 in the data set on biotinyl-Met-oxazolone; 6.01 in the data set on biotinyl-Leu-oxazolone; 5.01 with biotinyl-Val-oxazolone; 35.1 in the data set with biotinyl-Phe-oxazolone; 4.37 in the data set on biotinyl-Ile-oxazolone.

As to “AUUCACCAAGGUAAUCGGGUG [Fam2.2 aminoacylation ribozyme variant]”, the self-aminoacylation with biotinyl-Trp-oxazolone is 4.8; in the data set on biotinyl-Met-oxazolone it was 5.69; in the data set on biotinyl-Leu-oxazolone it was 7.71; in the data set with biotinyl-Val-oxazolone, 3.19; in the data set on biotinyl-Phe-oxazolone, 42.2; with biotinyl-Ile-oxazolone, 3.5.

For “AUUCACCAAGGUCAGCGGGUG [Fam2.2 aminoacylation ribozyme variant]”, the self-aminoacylation came to 4.65 in the data set on biotinyl-Trp-oxazolone; 4.83 with biotinyl-Met-oxazolone; 5.4 in the data set on biotinyl-Leu-oxazolone; 3.95 with biotinyl-Val-oxazolone; 29.3 in the data set on biotinyl-Phe-oxazolone; 4.01 in the data set with biotinyl-Ile-oxazolone.

For “AUUCACCAAGGUCAUCGGAUG [Fam2.2 aminoacylation ribozyme variant]”, the self-aminoacylation was 0.726 with biotinyl-Trp-oxazolone; 0.703 in the data set on biotinyl-Met-oxazolone; 0.794 with biotinyl-Leu-oxazolone; 1.17 in the data set on biotinyl-Val-oxazolone; 1.12 with biotinyl-Phe-oxazolone; 1.09 with biotinyl-Ile-oxazolone.

On to “AUUCACCAAGGUCAUCGGGAG [Fam2.2 aminoacylation ribozyme variant]”, for which the self-aminoacylation was 1.27 in the data set with biotinyl-Trp-oxazolone; 1.19 with biotinyl-Met-oxazolone; 1.57 in the data set on biotinyl-Leu-oxazolone; 1.11 with biotinyl-Val-oxazolone; 4.38 with biotinyl-Phe-oxazolone; 1.36 in the data set with biotinyl-Ile-oxazolone.

For the sequence “AUUCACCAAGGUCAUCGGGUG [Fam2.2 aminoacylation ribozyme variant]”, the self-aminoacylation in the data set on biotinyl-Trp-oxazolone came out at 8.61; in the data set with biotinyl-Met-oxazolone, 9.68; with biotinyl-Leu-oxazolone, 12.3; in the data set with biotinyl-Val-oxazolone it was 5.71; with biotinyl-Phe-oxazolone, 75.8; with biotinyl-Ile-oxazolone it was 5.52.

Take “AUUCACCAAGGUGAUCGGGUG [Fam2.2 aminoacylation ribozyme variant]”: the self-aminoacylation with biotinyl-Trp-oxazolone is 4.15; with biotinyl-Met-oxazolone it was 3.28; in the data set with biotinyl-Leu-oxazolone, 4.13; in the data set on biotinyl-Val-oxazolone, 2.98; with biotinyl-Phe-oxazolone, 17.6; in the data set with biotinyl-Ile-oxazolone it was 2.63.

As to “AUUCACCAAGUUCAUCGGGUG [Fam2.2 aminoacylation ribozyme variant]”, the self-aminoacylation worked out at 4.14 in the data set with biotinyl-Trp-oxazolone; 3.58 in the data set with biotinyl-Met-oxazolone; 4.31 in the data set on biotinyl-Leu-oxazolone; 2.89 in the data set on biotinyl-Val-oxazolone; 19.8 with biotinyl-Phe-oxazolone; 3.06 with biotinyl-Ile-oxazolone.

Regarding “AUUCACCAGGGUCAUCGGGUG [Fam2.2 aminoacylation ribozyme variant]”, the self-aminoacylation amounted to 6.99 in the data set with biotinyl-Trp-oxazolone; 7.51 with biotinyl-Met-oxazolone; 9.42 with biotinyl-Leu-oxazolone; 5.45 in the data set with biotinyl-Val-oxazolone; 57.5 in the data set with biotinyl-Phe-oxazolone; 4.8 in the data set with biotinyl-Ile-oxazolone.

With “AUUCACCCACGUCAUCGGGUG [Fam2.2 aminoacylation ribozyme variant]”, the self-aminoacylation in the data set with biotinyl-Trp-oxazolone stood at 3.99; with biotinyl-Met-oxazolone, 3.91; in the data set on biotinyl-Leu-oxazolone, 6.88; in the data set on biotinyl-Val-oxazolone, 3.23; in the data set on biotinyl-Phe-oxazolone it was 37.1; in the data set on biotinyl-Ile-oxazolone, 2.76.

Turning to “AUUCACCCAGGUCAUCCGGUG [Fam2.2 aminoacylation ribozyme variant]”, the self-aminoacylation stood at 8.51 in the data set on biotinyl-Trp-oxazolone; 8.64 in the data set with biotinyl-Met-oxazolone; 12.7 with biotinyl-Leu-oxazolone; 6.29 in the data set with biotinyl-Val-oxazolone; 90.7 in the data set on biotinyl-Phe-oxazolone; 6.38 in the data set on biotinyl-Ile-oxazolone.

For the sequence “AUUCACCCAGGUCAUCGCGUG [Fam2.2 aminoacylation ribozyme variant]”, the self-aminoacylation was found to be 13 in the data set on biotinyl-Trp-oxazolone; 16 in the data set on biotinyl-Met-oxazolone; 19.4 with biotinyl-Leu-oxazolone; 8.43 with biotinyl-Val-oxazolone; 123 with biotinyl-Phe-oxazolone; 8.24 in the data set with biotinyl-Ile-oxazolone.

The record behind these values is the supplement of paper PMC9233669.
